Values joined by “and” are separate entries in the source; they are usually repeats but may differ in a detail not shown here. Equal values may be shown once. Read-outs that look alike come from different tables or passages of the source.
How the values were obtained:
[1] = molecular target: SARS-CoV-2 spike trimer S (Wuhan, SmT1) (SARS-CoV-2 Wuhan); test: SPR, antigen on chip
[2] = molecular target: SARS-CoV-2 S1-RBD fused to human Fc (S1-RBD-Fc) (SARS-CoV-2 Wuhan; human); test: SPR, antigen on chip
[3] = molecular target: SARS-CoV-2 S1 (aa16-685) (Wuhan) (SARS-CoV-2 Wuhan) (UniProt P0DTC2); test: SPR, antigen on chip
[4] = molecular target: Human SARS-CoV-2_Wuhan S (SmT1) (SARS-CoV-2 (Wuhan)) (UniProt P0DTC2); test: SPR, VHH over immobilised S
[5] = molecular target: SARS-CoV spike (S) (SARS-CoV) (UniProt P59594); test: SPR, VHH over immobilised S
[6] = molecular target: Human SARS-CoV-2_Wuhan S (SmT1) (SARS-CoV-2 (Wuhan)) (UniProt P0DTC2); test: flow cytometry SVNA, VHH vs biotin-S binding to Vero E6 ACE2
[7] = molecular target: SARS-CoV-2 spike trimer S (Wuhan, SmT1) (SARS-CoV-2 Wuhan); test: SPR, antigen on chip; remark: listed apart in the source
[8] = molecular target: SARS-CoV-2 S1-RBD fused to human Fc (S1-RBD-Fc) (SARS-CoV-2 Wuhan; human); test: SPR, antigen on chip; remark: listed apart in the source
[9] = molecular target: SARS-CoV-2 S1 (aa16-685) (Wuhan) (SARS-CoV-2 Wuhan) (UniProt P0DTC2); test: SPR, antigen on chip; remark: listed apart in the source
[10] = molecular target: Human SARS-CoV-2_Wuhan S (SmT1) (SARS-CoV-2 (Wuhan)) (UniProt P0DTC2)
[11] = molecular target: Human SARS-CoV-2_Wuhan S (SmT1) (SARS-CoV-2 (Wuhan)) (UniProt P0DTC2); test: tandem SPR, immobilized S, orientation 1: VHH alone
[12] = molecular target: SARS-CoV-2 spike protein S on live virus, Wuhan (strain SARS-CoV-2/Canada/VIDO-01/2020) (SARS-CoV-2 (Wuhan)) (UniProt P0DTC2); test: cell-based or functional assay
[13] = molecular target: Human SARS-CoV S (SARS-CoV) (UniProt P59594); test: flow cytometry SVNA: VHH-Fc inhibits S binding to ACE2 on Vero E6 cells
[14] = molecular target: Human SARS-CoV-2_Wuhan S (SmT1) (SARS-CoV-2 (Wuhan)) (UniProt P0DTC2); test: as above
[15] = molecular target: Human SARS-CoV-2_Wuhan S (SmT1) (SARS-CoV-2 (Wuhan)) (UniProt P0DTC2); test: flow cytometry SVNA, VHH-Fc vs biotin-S binding to Vero E6 ACE2
[16] = molecular target: SARS-CoV-2 S on CHO-S cells (SARS-CoV-2) (UniProt P0DTC2); test: flow cytometry, CHO-S cells

## VHH-72 VHH
[1]
  koff: 0.15 s⁻¹
  kon: 1.06e+06 M⁻¹ s⁻¹
[2]
  Kd: 185 nM
  koff: 0.126 s⁻¹
  kon: 682000 M⁻¹ s⁻¹
[3]
  Kd: 194 nM
  koff: 0.161 s⁻¹
  kon: 830000 M⁻¹ s⁻¹
[4]
  Kd: 86.2 nM
  koff: 0.106 s⁻¹
  kon: 1.23e+06 M⁻¹ s⁻¹
[5]
  Kd: 6.52 nM
  koff: 0.00656 s⁻¹
  kon: 1.01e+06 M⁻¹ s⁻¹
[6]
  IC50: 59 nM
  IC99: 9.41 µM
  Imax %: 43%
[7]
  Kd: 142 nM
  koff: 0.156 s⁻¹
  kon: 1.1e+06 M⁻¹ s⁻¹
[8]
  Kd: 200 nM
  koff: 0.134 s⁻¹
  kon: 667000 M⁻¹ s⁻¹
[9]
  Kd: 156 nM
  koff: 0.146 s⁻¹
  kon: 940000 M⁻¹ s⁻¹
[10]
  End 2nd inj (RU): 37.8 RU and 51.2 RU
[11]
  End 1st inj (RU): 25.8 RU
[12]
  MN100: 156 nM

## VHH-72 VHH-Fc (Fc fusion)
[13]
  IC50: 7.8 nM
[14]
  IC50: 5.6 nM
[15]
  IC50: 7.2 nM
  IC99: 238 nM
  Imax %: 57%
[16]
  Bmax: 8030
  EC50: 0.2 nM
[12]
  LVNA IC50: 8.46 nM
  MN100: 1.25 nM

— patent publication US20240270826A1
